Results published in the supplement of paper PMC10065799, “High-throughput profiling of sequence recognition by tyrosine kinases and SH2 domains using bacterial peptide display” (eLife, 2023).

The sequences below were run against FGFR1 (UniProt P11362) (assay: phosphorylation enrichment, bacterial display (enrichment ratio); higher = better substrate or ligand; peptides without Tyr show the background).
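Wherever SH2 binding enrichment of the phosphorylated peptide, bacterial display is given: peptide library displayed on the E. coli surface as eCPX fusions, selected cells deep-sequenced, score is each peptide's frequency after selection divided by its frequency in the input.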
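Wherever phosphorylation enrichment, bacterial display is given: 11-residue human phosphosite peptides and single-mutation variants displayed on the E. coli surface, counted by deep sequencing, each peptide's frequency after selection divided by its frequency in the unselected input library; frequency after pTyr selection over input frequency; kinase dosed for 20-30% of maximal phosphorylation in three min.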

FGFR1, sequence (P11362 whole entry, looked up, the tested form may be a part): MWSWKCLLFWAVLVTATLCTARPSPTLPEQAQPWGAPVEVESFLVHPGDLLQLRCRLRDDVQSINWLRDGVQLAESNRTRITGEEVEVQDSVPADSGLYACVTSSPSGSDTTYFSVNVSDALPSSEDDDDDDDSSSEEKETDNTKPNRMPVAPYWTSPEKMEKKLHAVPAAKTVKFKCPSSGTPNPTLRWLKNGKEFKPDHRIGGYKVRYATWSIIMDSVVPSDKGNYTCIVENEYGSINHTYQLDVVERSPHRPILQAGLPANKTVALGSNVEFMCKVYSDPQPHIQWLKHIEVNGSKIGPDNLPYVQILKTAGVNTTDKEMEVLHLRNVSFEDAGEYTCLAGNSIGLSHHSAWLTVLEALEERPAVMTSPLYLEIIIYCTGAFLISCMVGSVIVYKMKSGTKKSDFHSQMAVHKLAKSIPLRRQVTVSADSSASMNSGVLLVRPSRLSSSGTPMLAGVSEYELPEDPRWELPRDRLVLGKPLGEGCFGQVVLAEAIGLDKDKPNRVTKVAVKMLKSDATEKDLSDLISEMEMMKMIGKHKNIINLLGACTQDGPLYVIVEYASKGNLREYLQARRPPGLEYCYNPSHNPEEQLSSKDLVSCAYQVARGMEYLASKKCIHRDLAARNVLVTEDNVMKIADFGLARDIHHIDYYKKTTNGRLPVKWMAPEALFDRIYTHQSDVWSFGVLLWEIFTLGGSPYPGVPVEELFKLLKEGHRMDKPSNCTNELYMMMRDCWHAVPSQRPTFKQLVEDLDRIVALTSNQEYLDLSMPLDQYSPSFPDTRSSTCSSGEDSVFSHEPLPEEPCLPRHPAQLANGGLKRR

Going from KIKGWYEKCEP [KRT26_Y119] to HHTDECEFDEL [TGM1_Y134_Y134C_YF], the phosphorylation enrichment rises from 0.515 to 0.605.

Compared with TGVWDYIHVVD [GALE_Y241_R239W], EDDPEYMRLRN [ADD2_Y31] is higher in phosphorylation enrichment: 0.684 for the first, 0.785 for the second.

Going from GLRQGYFVEAQ [APCS_Y142] to EFFDGYWGFSV [ITGA2B_Y265_YF], the phosphorylation enrichment rises from 0.559 to 6.3.

Compared with RMSSSYPTGLA [ADM_Y52], ISIFHYAKGQP [MPZ_Y82] is lower in phosphorylation enrichment: 0.562 for the first, 0.456 for the second.

First: DHPSEYAARQL [ANXA13_Y90_R86H]
Second: FSTDFYRVGGH [NTRK2_Y707_YF]
The phosphorylation enrichment of the first is higher: 0.496 for the first, 0.459 for the second.

Compared with ILTYKYLQIPM [KIT_Y547_K550I], REIHDYIKHLG [UNC13C_Y308_D304E] is lower in phosphorylation enrichment: 0.785 for the first, 0.371 for the second.

Compared with NYYDLYGGEKF [PTPN11_Y66_D61N], ISDNACQFMLT [MYH7_Y162_Y162C_YF] is lower in phosphorylation enrichment: 13.4 for the first, 0.588 for the second.

Compared with RDHYGYRQSVT [CD55_Y245], EVESPYEVRDF [GIGYF2_Y1168_H1171R_YF] is lower in phosphorylation enrichment: 0.747 for the first, 0.655 for the second.

First: MPQNEYIELHR [NSA2_Y6]
Second: LFMGDYVGRGF [PPP2CA_Y86_D88G_YF]
The phosphorylation enrichment of the first is higher: 1.95 for the first, 0.919 for the second.

First: ADLLVYIKALN [HPRT1_Y81_D80V]
Second: RNFDTYTAGLS [RHBDD1_Y264_YF]
The phosphorylation enrichment of the first is higher: 0.512 for the first, 0.407 for the second.

First: CTTIHFNYMCN [TP53_Y234_Y234F]
Second: NVVVPYEPPEV [TP53_Y220_S215N]
The phosphorylation enrichment of the first is higher: 0.534 for the first, 0.443 for the second.

First: LDPIQYSKHPP [SQSTM1_Y433_T430P]
Second: SGTFQYIIAKF [FOXL2_Y83_I80T_YF]
The phosphorylation enrichment of the first is higher: 0.624 for the first, 0.494 for the second.

Going from FTGDIYSNSNL [LZTR1_Y141_YF] to GHNDVYISEHV [GRIN2A_Y1423], the phosphorylation enrichment falls from 0.667 to 0.393.

Compared with RCNHPYLINGA [CHD7_Y1256_C1251R], KFLENYLNCLL [PLD2_Y169_R172C_YF] is higher in phosphorylation enrichment: 0.464 for the first, 0.759 for the second.

Compared with ISITPYPAILH [IFT80_Y588], DLLMQYPKAQG [FAM83C_Y600] is lower in phosphorylation enrichment: 0.433 for the first, 0.341 for the second.

First: ARGTRYRFVSQ [UCN3_Y95_YF]
Second: EFGFRYELVQY [UGGT2_Y1289_Y1285F]
The phosphorylation enrichment of the first is lower: 0.483 for the first, 0.512 for the second.

Sequence DLGIQYKALKP [CTNNA1_Y177] has a phosphorylation enrichment of 0.507.

Each sequence was assayed against Grb2 SH2 (UniProt P62993) (assay: SH2 binding enrichment of the phosphorylated peptide, bacterial display (enrichment ratio); higher = better substrate or ligand; peptides without Tyr show the background).
Grb2 SH2, sequence (P62993 whole entry, looked up): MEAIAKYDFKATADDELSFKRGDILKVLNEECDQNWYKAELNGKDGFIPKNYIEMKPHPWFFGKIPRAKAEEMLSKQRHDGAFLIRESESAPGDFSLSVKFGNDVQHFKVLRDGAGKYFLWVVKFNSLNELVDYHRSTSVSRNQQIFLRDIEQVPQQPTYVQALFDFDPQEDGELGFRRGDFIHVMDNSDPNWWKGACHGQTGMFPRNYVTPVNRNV

First: KIKGWYEKCEP [KRT26_Y119]
Second: HHTDECEFDEL [TGM1_Y134_Y134C_YF]
The SH2 binding enrichment of the first is lower: 0.935 for the first, 1.12 for the second.

Going from TGVWDYIHVVD [GALE_Y241_R239W] to EDDPEYMRLRN [ADD2_Y31], the SH2 binding enrichment rises from 0.746 to 0.838.

Compared with GLRQGYFVEAQ [APCS_Y142], EFFDGYWGFSV [ITGA2B_Y265_YF] is lower in SH2 binding enrichment: 0.85 for the first, 0.705 for the second.

Going from RMSSSYPTGLA [ADM_Y52] to ISIFHYAKGQP [MPZ_Y82], the SH2 binding enrichment rises from 0.714 to 0.874.

Going from DHPSEYAARQL [ANXA13_Y90_R86H] to FSTDFYRVGGH [NTRK2_Y707_YF], the SH2 binding enrichment rises from 0.826 to 0.849.

First: ILTYKYLQIPM [KIT_Y547_K550I]
Second: REIHDYIKHLG [UNC13C_Y308_D304E]
The SH2 binding enrichment of the first is higher: 0.893 for the first, 0.788 for the second.

Compared with NYYDLYGGEKF [PTPN11_Y66_D61N], ISDNACQFMLT [MYH7_Y162_Y162C_YF] is lower in SH2 binding enrichment: 1.16 for the first, 0.692 for the second.

First: RDHYGYRQSVT [CD55_Y245]
Second: EVESPYEVRDF [GIGYF2_Y1168_H1171R_YF]
The SH2 binding enrichment of the first is higher: 0.98 for the first, 0.888 for the second.

Going from MPQNEYIELHR [NSA2_Y6] to LFMGDYVGRGF [PPP2CA_Y86_D88G_YF], the SH2 binding enrichment rises from 0.808 to 1.01.

Compared with ADLLVYIKALN [HPRT1_Y81_D80V], RNFDTYTAGLS [RHBDD1_Y264_YF] is lower in SH2 binding enrichment: 0.949 for the first, 0.664 for the second.

Compared with CTTIHFNYMCN [TP53_Y234_Y234F], NVVVPYEPPEV [TP53_Y220_S215N] is lower in SH2 binding enrichment: 1.83 for the first, 0.757 for the second.

Compared with LDPIQYSKHPP [SQSTM1_Y433_T430P], SGTFQYIIAKF [FOXL2_Y83_I80T_YF] is lower in SH2 binding enrichment: 0.885 for the first, 0.699 for the second.

First: FTGDIYSNSNL [LZTR1_Y141_YF]
Second: GHNDVYISEHV [GRIN2A_Y1423]
The SH2 binding enrichment of the first is lower: 0.721 for the first, 1.1 for the second.

First: RCNHPYLINGA [CHD7_Y1256_C1251R]
Second: KFLENYLNCLL [PLD2_Y169_R172C_YF]
The SH2 binding enrichment of the first is lower: 0.931 for the first, 1.45 for the second.

Going from ISITPYPAILH [IFT80_Y588] to DLLMQYPKAQG [FAM83C_Y600], the SH2 binding enrichment rises from 0.616 to 0.882.

Compared with ARGTRYRFVSQ [UCN3_Y95_YF], EFGFRYELVQY [UGGT2_Y1289_Y1285F] is lower in SH2 binding enrichment: 0.627 for the first, 0.566 for the second.

In the case of DLGIQYKALKP [CTNNA1_Y177], the SH2 binding enrichment is reported as 0.897.

These sequences were tested against c-Src SH2 in the same assay as above.

Compared with KIKGWYEKCEP [KRT26_Y119], HHTDECEFDEL [TGM1_Y134_Y134C_YF] is lower in SH2 binding enrichment: 1.26 for the first, 0.585 for the second.

Going from TGVWDYIHVVD [GALE_Y241_R239W] to EDDPEYMRLRN [ADD2_Y31], the SH2 binding enrichment rises from 0.383 to 0.506.

Compared with GLRQGYFVEAQ [APCS_Y142], EFFDGYWGFSV [ITGA2B_Y265_YF] is higher in SH2 binding enrichment: 0.618 for the first, 0.657 for the second.

Compared with RMSSSYPTGLA [ADM_Y52], ISIFHYAKGQP [MPZ_Y82] is higher in SH2 binding enrichment: 0.422 for the first, 0.7 for the second.

Going from DHPSEYAARQL [ANXA13_Y90_R86H] to FSTDFYRVGGH [NTRK2_Y707_YF], the SH2 binding enrichment rises from 0.483 to 0.56.

First: ILTYKYLQIPM [KIT_Y547_K550I]
Second: REIHDYIKHLG [UNC13C_Y308_D304E]
The SH2 binding enrichment of the first is higher: 0.929 for the first, 0.512 for the second.

Compared with NYYDLYGGEKF [PTPN11_Y66_D61N], ISDNACQFMLT [MYH7_Y162_Y162C_YF] is lower in SH2 binding enrichment: 1.84 for the first, 0.419 for the second.

Compared with RDHYGYRQSVT [CD55_Y245], EVESPYEVRDF [GIGYF2_Y1168_H1171R_YF] is lower in SH2 binding enrichment: 0.484 for the first, 0.45 for the second.

First: MPQNEYIELHR [NSA2_Y6]
Second: LFMGDYVGRGF [PPP2CA_Y86_D88G_YF]
The SH2 binding enrichment of the first is higher: 0.601 for the first, 0.487 for the second.

Going from ADLLVYIKALN [HPRT1_Y81_D80V] to RNFDTYTAGLS [RHBDD1_Y264_YF], the SH2 binding enrichment falls from 0.511 to 0.428.

First: CTTIHFNYMCN [TP53_Y234_Y234F]
Second: NVVVPYEPPEV [TP53_Y220_S215N]
The SH2 binding enrichment of the first is higher: 1.72 for the first, 0.742 for the second.

Going from LDPIQYSKHPP [SQSTM1_Y433_T430P] to SGTFQYIIAKF [FOXL2_Y83_I80T_YF], the SH2 binding enrichment rises from 0.451 to 0.58.

Going from FTGDIYSNSNL [LZTR1_Y141_YF] to GHNDVYISEHV [GRIN2A_Y1423], the SH2 binding enrichment rises from 0.415 to 0.456.

Going from RCNHPYLINGA [CHD7_Y1256_C1251R] to KFLENYLNCLL [PLD2_Y169_R172C_YF], the SH2 binding enrichment rises from 0.732 to 1.25.

Compared with ISITPYPAILH [IFT80_Y588], DLLMQYPKAQG [FAM83C_Y600] is higher in SH2 binding enrichment: 0.385 for the first, 0.485 for the second.

Compared with ARGTRYRFVSQ [UCN3_Y95_YF], EFGFRYELVQY [UGGT2_Y1289_Y1285F] is higher in SH2 binding enrichment: 0.458 for the first, 1.39 for the second.

In the case of DLGIQYKALKP [CTNNA1_Y177], the SH2 binding enrichment is reported as 0.361.

Each sequence was assayed against SHP2-C SH2 in the same assay as above.

Compared with KIKGWYEKCEP [KRT26_Y119], HHTDECEFDEL [TGM1_Y134_Y134C_YF] is lower in SH2 binding enrichment: 0.693 for the first, 0.628 for the second.

Going from TGVWDYIHVVD [GALE_Y241_R239W] to EDDPEYMRLRN [ADD2_Y31], the SH2 binding enrichment rises from 0.552 to 0.587.

Going from GLRQGYFVEAQ [APCS_Y142] to EFFDGYWGFSV [ITGA2B_Y265_YF], the SH2 binding enrichment falls from 0.718 to 0.634.

First: RMSSSYPTGLA [ADM_Y52]
Second: ISIFHYAKGQP [MPZ_Y82]
The SH2 binding enrichment of the first is lower: 0.406 for the first, 0.739 for the second.

Going from DHPSEYAARQL [ANXA13_Y90_R86H] to FSTDFYRVGGH [NTRK2_Y707_YF], the SH2 binding enrichment rises from 0.657 to 0.702.

Going from ILTYKYLQIPM [KIT_Y547_K550I] to REIHDYIKHLG [UNC13C_Y308_D304E], the SH2 binding enrichment falls from 3.97 to 0.475.

First: NYYDLYGGEKF [PTPN11_Y66_D61N]
Second: ISDNACQFMLT [MYH7_Y162_Y162C_YF]
The SH2 binding enrichment of the first is higher: 0.702 for the first, 0.687 for the second.

First: RDHYGYRQSVT [CD55_Y245]
Second: EVESPYEVRDF [GIGYF2_Y1168_H1171R_YF]
The SH2 binding enrichment of the first is higher: 0.775 for the first, 0.616 for the second.

First: MPQNEYIELHR [NSA2_Y6]
Second: LFMGDYVGRGF [PPP2CA_Y86_D88G_YF]
The SH2 binding enrichment of the first is lower: 0.767 for the first, 0.817 for the second.

Going from ADLLVYIKALN [HPRT1_Y81_D80V] to RNFDTYTAGLS [RHBDD1_Y264_YF], the SH2 binding enrichment falls from 0.681 to 0.514.

First: CTTIHFNYMCN [TP53_Y234_Y234F]
Second: NVVVPYEPPEV [TP53_Y220_S215N]
The SH2 binding enrichment of the first is higher: 2.05 for the first, 0.607 for the second.

First: LDPIQYSKHPP [SQSTM1_Y433_T430P]
Second: SGTFQYIIAKF [FOXL2_Y83_I80T_YF]
The SH2 binding enrichment of the first is higher: 0.838 for the first, 0.572 for the second.

First: FTGDIYSNSNL [LZTR1_Y141_YF]
Second: GHNDVYISEHV [GRIN2A_Y1423]
The SH2 binding enrichment of the first is higher: 0.586 for the first, 0.535 for the second.

First: RCNHPYLINGA [CHD7_Y1256_C1251R]
Second: KFLENYLNCLL [PLD2_Y169_R172C_YF]
The SH2 binding enrichment of the first is lower: 0.693 for the first, 1.61 for the second.

First: ISITPYPAILH [IFT80_Y588]
Second: DLLMQYPKAQG [FAM83C_Y600]
The SH2 binding enrichment of the first is lower: 0.547 for the first, 0.763 for the second.

Compared with ARGTRYRFVSQ [UCN3_Y95_YF], EFGFRYELVQY [UGGT2_Y1289_Y1285F] is higher in SH2 binding enrichment: 0.407 for the first, 0.501 for the second.

DLGIQYKALKP [CTNNA1_Y177] gave an SH2 binding enrichment of 0.594.
